Laboratory results as given in publication PMC6366758.

Tests used:
[1] = molecular target: RSV F glycoprotein nanoparticles (human respiratory syncytial virus A2 (RSV/A2))
[2] = molecular target: RSV F710 post-fusion (human respiratory syncytial virus A2 (RSV/A2) | bacteriophage T4); experiment: cryo-EM structure; single particle cryo-EM of the purified RSV F710-R4.C6 Fab complex on graphene oxide grids; C3 symmetry; overall 3.9 A
[3] = molecular target: Post-fusion F (human respiratory syncytial virus A2 (RSV/A2)); experiment: SPR

## Motavizumab (antibody)
[1]
  RSV/A Long neutralization (IC50), micro-neutralization assay on HEp-2 cells: 0.0208 µg/mL

## RSV F710 post-fusion
[2]
  stoichiometry N: 3

## Palivizumab
[3]
  Kd: 0.34 nM
  koff: 5.79e-05 s⁻¹
